B1: P-1150 (antibody, V domains shown)
VH: QVQLVQSGVEVKKPGASVKVSCKASGYTFTNYYMYWVRQAPGQGLEWMGGINPSNGGTNFAQKFQGRVTLTTDSSTTTAYMELKSLQFDDTAVYYCARRDYRFDMGFDYWGQGTTVTVSS
VL: EIVLTQSPATLSLSPGERATLSCRASQGVSTSGYSYLAWYQQKPGQAPRLLIYLASYRASGVPARFSGSGSGTDFTLTISSLEPEDFAVYYCQHSRDLPLTFGGGTKVEIKR
B2: P-1153 (antibody, V domains shown)
VH: QVQLVQSGVEVKKPGASVKVSCKASGYTFTNYYMYWVRQAPGQGLEWMGGINPSNGGTNYAQKFQGRVTLTTDSSTTTAYMELKSLQFDDTAVYYCARRDYRFDMGFDYWGQGTTVTVSS
VL: EIVLTQSPATLSLSPGERATLSCRASQGVSTSGYSYLAWYQQKPGQAPRLLIYLASYRASGVPARFSGSGSGTDFTLTISSLEPEDFAVYYCQHSRDLPLTFGGGTKVEIKR
B3: P-1151 (antibody, V domains shown)
VH: QVQLVQSGVEVKKPGASVKVSCKASGYTFTNYYMYWVRQAPGQGLEWMGGINPSNGGTNYAQKFQGRVTLTTDSSTTTAYMELKSLQFDDTAVYYCARRDYRFDMGFDYWGQGTTVTVSS
VL: EIVLTQSPATLSLSPGERATLSCRASQGVSTSGYSYLHWYQQKPGQAPRLLIYLASYRASGVPARFSGSGSGTDFTLTISSLEPEDFAVYYCQHSRDLPLTFGGGTKVEIKR
B4: P-1148 (antibody, V domains shown)
VH: QVQLVQSGVEVKKPGASVKVSCKASGYTFTNYYMYWVRQAPGQGLEWMGGINPSNGGTNFAQKFQGRVTLTTDSSTTTAYMELKSLQFDDTAVYYCARRDYRFDMGFDYWGQGTTVTVSS
VL: EIVLTQSPATLSLSPGERATLSCRASQGVSTSGYSYLHWYQQKPGQAPRLLIYLASYRASGVPARFSGSGSGTDFTLTISSLEPEDFAVYYCQHSRDLPLTFGGGTKVEIKR

target: human PD1 (human, UniProt Q15116); assay: ELISA
Sequence (Q15116 25-167): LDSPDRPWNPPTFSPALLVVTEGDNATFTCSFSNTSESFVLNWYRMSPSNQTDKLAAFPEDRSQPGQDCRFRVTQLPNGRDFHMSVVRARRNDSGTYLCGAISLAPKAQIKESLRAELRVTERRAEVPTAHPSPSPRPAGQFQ

**Q.** With B1 as the binder, how does the EC50 read?
**A.** Its EC50 is 0.088 nM.

**Q.** B2 was tested. Which EC50 did it give?
**A.** The EC50 was 0.11 nM.

**Q.** How did the EC50 turn out when B3 was run?
**A.** Its EC50 is 0.065 nM.

**Q.** B4 was tested. Which EC50 did it give?
**A.** The EC50 was 0.093 nM.

Reference: patent US20260347475 (published 2026)
